From patent US20230405140A1, “ANTI-CD56 ANTIBODY-DRUG CONJUGATES AND THEIR USE IN THERAPY” (MCSAF INSIDE ONCOLOGY, priority 2020, published 2023)

What was measured:
H209 = assay: XTT assay, ADC-mediated cytotoxicity; assay type: cell-based; settings: 4 days, read-out: H209 n = 3 IC50
Method: (§1) To evaluate cell viability and cellular metabolic activity, XTT assays were performed according to standard protocols. WaGa, PeTa, H69, H209, H660 cell lines were plated in 3 replicates in a 96-well plate with 5.10^4 cells/well. […] Untreated cells were used as viability reference. Cells treated with 1% Triton X100 were used as cell death positive control. After 4 days, 25 μL XTT reagent at 1 mg/mL (Alfa Aesar, thermo Fisher) with N-methyl dibenzopyrazine methyl sulfate (PMS) activator (25 μM) was added per well and absorbance was measured at 450 nm after 4 h incubation. Absorbance at 620 nm was used as a reference. Three independent experiments have been performed.

H69 = assay: XTT assay, ADC-mediated cytotoxicity; assay type: cell-based; settings: 4 days, read-out: H69 n = 3 IC50
Method: as §1

PeTa = assay: XTT assay, ADC-mediated cytotoxicity; assay type: cell-based; settings: 4 days, read-out: PeTa n = 3 IC50
Method: as §1

WaGa CRISPR CD56 = assay: XTT assay, ADC-mediated cytotoxicity; assay type: cell-based; settings: 4 days, CD56− cells, read-out: WaGa CRISPR CD56 n = 3 IC50
Method: as §1

WaGa = assay: XTT assay, ADC-mediated cytotoxicity; assay type: cell-based; settings: 4 days, read-out: WaGa n = 3 IC50
Method: as §1

MKL-1 CRISPR CD56 = assay: XTT assay, ADC-mediated cytotoxicity; assay type: cell-based; settings: 4 days, CD56− cells, read-out: MKL-1 CRISPR CD56 n = 3 IC50
[1] = system: CD56− cells (CRISPR-MCC cell lines WaGa and MKL-1); assay: XTT assay, summary over CD56- CRISPR-MCC cell lines; assay type: cell-based; settings: at high doses; in words
Method: as §1

primary NK cells = assay: Killing effect on primary NK cells (Annexin V / 7-AAD flow cytometry); assay type: cell-based, human; settings: for Killing effect on primary NK cells (ADCC): after 4 h of incubation, in words; for Killing effect on primary NK cells: after 4 days of incubation
Method: (§2) Primary natural killer cells (NK) and monocytes were obtained from blood of healthy adult volunteers at the Etablissement Français du Sang, according to institutional research protection guidelines agreement N° CA-REC-2019-188, Centre Val de Loire, France. Ficoll density centrifugation step (Eurobio) was performed to isolate peripheral blood mononuclear cells (PBMC).
NK cells were isolated from PBMC by negative selection (NK cell isolation kit human, Miltenyi Biotec) with purity higher than 95%. NK cells were cultured for up to 36 h in RPMI 1640 supplemented with 10% FCS, 1% penicillin and streptomycin, 1% L-glutamine and 100 UI/mL IL-2 at 37° C., 5% CO2 at 1.10^6 cells/mL.

neutrophils = assay: Killing effect on neutrophils (Annexin V / 7-AAD flow cytometry); assay type: cell-based, human; settings: after 4 h of incubation; CD56 negative cells; at high concentration
Text: The neutrophils were isolated directly from whole blood of healthy adult volunteers at the Etablissement Français du Sang, according to institutional research protection guidelines agreement N° CA-REC-2019-188, Centre Val de Loire, France, by negative selection, using the kit (MACSxpress® Whole Blood Neutrophil Isolation Kit, MiltenyBiotech™). The neutrophils were used directly following their isolation and then resuspended in HBSS buffer (1X) (Gibco 15266355), at 1×10^6 cells/mL.
(§3) 5% of CO2. […] All products were tested after 4 days treatment on NK cells and 4 h on monocytes and neutrophils.

[2] = system: solid tumors expressing CD56; settings: several phase I studies; in words; cited from earlier work
[3] = system: small cell lung carcinoma; settings: phase II, in combination with chemotherapy (cisplatin-etoposide); in words; cited from earlier work
[4] = system: CD56+ cell lines (WaGa, PeTa, MKL-1, H69, H209, H660); assay: Flow cytometry binding of Alexa Fluor 750 labelled antibodies, CD56+ cell lines; settings: 4° C., 30 minutes, in words
Method: (§4) Binding levels of L and mAb-003 have been evaluated on several tumor cell lines: MCC (WaGa, PeTa, MKL-1), SCLC (H69, H209) and prostate cancers (H660) as well as WaGa, PeTa and MKL-1 CD56-knocked out using CRISPR technology.
(§5) The L and mAb-003 were labelled with Alexa Fluor 750 (Alexa Fluor 750 Protein Labelling Kit, Invitrogen) to allow their detection by flow cytometry. The labelled antibodies were incubated with 1.10^5 cells at 4° C. for 30 minutes, then cells were washed twice with PBS supplemented with 1% FCS, and the binding was analysed by Flow cytometry on Cytoflex.

[5] = system: CD56− cells (CRISPR WaGa, PeTa, MKL-1); assay: Flow cytometry binding of Alexa Fluor 750 labelled antibodies, CD56- CRISPR cell lines; settings: 4° C., 30 minutes, in words
Method: as §4, §5

WaGa xenograft = assay: Efficacy in vivo, WaGa xenograft, ADC 5 mg/kg twice a week; parameters: species or system NOD/SCID mice; settings: 5 mg/kg IV twice a week; day 30
Method: Xenograft mice model: eighteen 7-week-old females NOD/SCID (Janvier Labs) mice were maintained under aseptic conditions. All animal procedures were approved by local ethics committee (Apafis #26772-2020072715262737 v2). WaGa cell line was used for tumor induction, as previously described in [9]. Mice received one subcutaneous injection of 1.10^7 WaGa cells with 10% matrigel on the back. General state and weight were monitored twice a week during the procedure. Tumor volume was measured with a caliper and tumor volume was calculated according to the formula: π/6×width×length×height. […] Mice were sacrificed 30 days after inclusion or when reaching one predefined endpoint (tumor ulceration, weight loss >20%, or prostration). Tumors, heart, lungs, spleen, and liver were removed for macroscopic examination. After dissection, tumor weight and volume were assessed. To detect metastatic spread and potential toxicity of ADCs, whole tumors and organs (heart, lungs, spleen, and liver), were formalin-fixed and paraffin embedded for microscopic evaluation to evaluate architecture changes, inflammatory infiltrate, necrosis, vascular changes, fibrosis and liver steatosis.

monocytes = assay: Killing effect on monocytes (Annexin V / 7-AAD flow cytometry); assay type: cell-based, human; settings: after 4 h of incubation; in words
Method: as §2
Monocytes were isolated from PBMC by positive selection using anti-CD14 MicroBeads (Miltenyi Biotec) according to manufacturer recommendations. Monocytes were cultured in serum-free X-VIVO-15 medium (Lonza) at 1.10^6 cells/mL.
as §3

B1: LM: Lorvotuzumab Mertansine, anti-CD56 ADC coupled to mertansine (DM1) (conjugate, chains of the INN, looked up)
VH: QVQLVESGGGVVQPGRSLRLSCAASGFTFSSFGMHWVRQAPGKGLEWVAYISSGSFTIYYADSVKGRFTISRDNSKNTLYLQMNSLRAEDTAVYYCARMRKGYAMDYWGQGTLVTVSS
VL: DVVMTQSPLSLPVTLGQPASISCRSSQIIIHSDGNTYLEWFQQRPGQSPRRLIYKVSNRFSGVPDRFSGSGSGTDFTLKISRVEAEDVGVYYCFQGSHVPHTFGQGTKVEIK
modifications: mertansine (DM1)
IC50 (H209): 100 nM | IC50 (H69): 62.6 nM | IC50 (PeTa): 26.9 nM | IC50 (WaGa CRISPR CD56): 75.6 nM | IC50 (WaGa): 75.6 nM | IC50 (MKL-1 CRISPR CD56): 74.1 nM | Cytotoxicity on CD56− cells [1]: nonspecific cytotoxicity | Killing effect on primary NK cells (ADCC) (primary NK cells): ADCC killing effect was observed | Killing effect towards neutrophils (neutrophils): around 15% | Tolerance [2]: acceptable tolerance | Survival benefit [3]: did not demonstrate any survival benefit

B2: L: Lorvotuzumab (antibody, chains of the INN, looked up, V domains shown)
VH: B1 VH
VL: B1 VL
Binding to CD56+ cells [4]: lower binding level | Binding to CD56− cells (CRISPR cells) [5]: binding to CD56− cells | Killing effect on primary NK cells (ADCC) (primary NK cells): ADCC killing effect was observed | Killing effect on primary NK cells (primary NK cells): 40% | Killing effect towards neutrophils (neutrophils): about 15%

B3: MF-L-MMAE: L conjugated to MMAE with 6-(2,6-bis(bromomethyl)pyridin-4-yl)amido-N-hexanamide-valine-citrulline-p-aminobenzoyl carbamate (conjugate, chains of the INN, looked up)
VH: B1 VH
VL: B1 VL
modifications: MMAE via val-cit PAB linker
notes: L conjugated to MMAE with 6-(2,6-bis(bromomethyl)pyridin-4-yl)amido-N-hexanamide-valine-citrulline-p-aminobenzoyl carbamate
Mean end tumor weight (WaGa xenograft): 0.08 g

B4: LM-002: Deglycosylated Lorvotuzumab Mertansine: treated with PNGase F to remove the glycosylation (conjugate, chains of the INN, looked up)
VH: B1 VH
VL: B1 VL
modifications: mertansine; deglycosylated
notes: Deglycosylated Lorvotuzumab Mertansine: treated with PNGase F to remove the glycosylation
Killing effect on monocytes (monocytes): negligible killing effect

B5: L-002: Deglycosylated Lorvotuzumab: treated with PNGase F to remove the glycosylation at Asn297 (antibody, chains of the INN, looked up, V domains shown)
VH: B1 VH
VL: B1 VL
modifications: deglycosylated with PNGase F
notes: Deglycosylated Lorvotuzumab: treated with PNGase F to remove the glycosylation at Asn297
Killing effect on primary NK cells (primary NK cells): 20%
